We go through 8 substances from patent US9012166B2, “Method for assaying histone methylation enzyme activity” (Kyushu Institute of Technology, priority 2010, dated 2015).

*: point of attachment. AMC = Cc1cc(=O)oc2cc(N*)ccc12

The first assay concerns the target T1, Set9 (His-Set9, His-Set7/9) (Homo sapiens, UniProt Q8WTS6).
T1 sequence (Q8WTS6 1-366): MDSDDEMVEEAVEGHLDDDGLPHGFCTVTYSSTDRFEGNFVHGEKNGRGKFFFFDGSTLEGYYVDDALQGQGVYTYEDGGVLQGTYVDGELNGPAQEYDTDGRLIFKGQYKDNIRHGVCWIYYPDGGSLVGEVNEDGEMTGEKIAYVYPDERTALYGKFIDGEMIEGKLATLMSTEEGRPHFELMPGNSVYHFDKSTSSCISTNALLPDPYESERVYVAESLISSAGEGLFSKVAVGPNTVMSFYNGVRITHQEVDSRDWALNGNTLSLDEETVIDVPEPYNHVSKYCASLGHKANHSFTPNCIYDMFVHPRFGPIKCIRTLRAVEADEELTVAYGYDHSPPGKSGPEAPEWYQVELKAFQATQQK
Briefly: Substrate specificity / methylation of peptidyl MCAs by Set9. The class given is biochemical. As to conditions: Example 6; His-Set9 0-1.5 μg/μL; right panel of FIG. 14. The method, then:
When Set9 was adopted as a histone methyltransferase, the following method was used. 10 μL of 2×HMT buffer (100 mM Tris-HCl (pH 8.5), 20 mM MgCl2, 40 mM KCl, 20 mM 2-mercaptoethanol, 500 mM sucrose), 2 μL of a BSA solution (30 μg/mL), 3 μL of His-Set9 (0, 0.33 to 10 μg/μL), and 1 μL of distilled water were mixed and then incubated at room temperature for 1 hour. Then, 2 μL of SAM (10 mM) and 2 μL of a peptidyl MCA solution (0.6 mM) were added thereto, which was then incubated at 37° C. for 1 hour. Thereafter, 30 μL of a trypsin solution (20 mg/mL) was added thereto, followed by incubation at 37° C. for 15 minutes. Then, the fluorescence intensity of the solution was measured at an excitation wavelength (λex) of 390 nm and a fluorescence wavelength (λem) of 460 nm. The final concentration of His-Set9 during the measurement of fluorescence intensity was 0, 0.05, 0.15, 0.5, or 1.5 μg/μL. The results of the assay for measuring histone methyltransferase activity are shown in the right panel of FIG. 14.
When Set9 was adopted as a histone methyltransferase, the following method was used. 10 μL of 2×HMT buffer (100 mM Tris-HCl (pH 8.5), 20 mM MgCl2, 40 mM KCl, 20 mM 2-mercaptoethanol, 500 mM sucrose), 0.4 μL of a BSA solution (150 μg/mL), 5.9 μL of His-Set9 (0, 0.051, 0.17, 0.51, 1.7 μg/μL), and 1.7 μL of distilled water were mixed and then incubated at room temperature for 1 hour. Then, 1 μL of SAM (20 mM) and 1 μL of a peptidyl MCA solution (1.2 mM) were added thereto, which was then incubated at 37° C. for 1 hour. Thereafter, 30 μL of a trypsin solution (20 mg/mL) was added thereto, followed by incubation at 37° C. for 15 minutes. Then, the fluorescence intensity of the solution was measured at an excitation wavelength (λex) of 390 nm and a fluorescence wavelength (λem) of 460 nm. The final concentration of His-Set9 during the measurement of fluorescence intensity was 0, 0.015, 0.05, 0.15, or 0.5 μg/μL. The results of the assay for measuring histone methyltransferase activity are shown in the right panel of FIG. 16.
When Set7/9 was adopted as a histone methyltransferase, the following method was used. 10 μL of 2×HMT buffer (100 mM Tris-HCl (pH 8.5), 20 mM MgCl2, 40 mM KCl, 20 mM 2-mercaptoethanol, 500 mM sucrose), 0.4 μL of a BSA solution (150 μg/mL), 4 µL of His-Set7/9 (0, 0.025 to 0.75 μg/μL), and 3.6 μL of distilled water were mixed and then incubated at room temperature for 1 hour. Then, 1 μL of SAM (final concentration: 0.1 mM) and 1 μL of a peptidyl MCA solution (1.2 mM) were added thereto, which was then incubated at 37° C. for 1 hour. Thereafter, 30 μL of a trypsin solution (20 mg/mL) was added thereto, followed by incubation at 37° C. for 15 minutes. Then, the fluorescence intensity of the solution was measured at an excitation wavelength (λex) of 330 nm and a fluorescence wavelength (λem) of 380 nm or at an excitation wavelength (λex) of 390 nm and a fluorescence wavelength (λem) of 460 nm. The final concentration of His-Set7/9 during the measurement of fluorescence intensity was 0, 0.005, 0.015, 0.05, or 0.15 μg/μL.
As for Ac-QTARK-MCA [Ac-histone H3 (5-9)-MCA], the “methylation of peptidyl MCA by Set9” value is “little methylation occurred”.

For “Ac-LKSK-MCA (Ac-LKSK-{AMC}; SMILES CC(=O)N[C@@H](CC(C)C)C(=O)N[C@@H](CCCCN)C(=O)N[C@@H](CO)C(=O)N[C@@H](CCCCN)C(=O)Nc1ccc2c(C)cc(=O)oc2c1; listed as Homo sapiens) [Ac-p53 (369-372)-MCA]”, the “methylation of peptidyl MCA by Set9” value is reported as “methylation often occurred”. As for “Ac-ARTKQTARK-MCA [Ac-histone H3 (1-9)-MCA]”, the “methylation of peptidyl MCA by Set9” value was “little methylation occurred”. In the case of “Ac-ARTK-MCA (Ac-ARTK-{AMC}; SMILES CC(=O)N[C@@H](C)C(=O)N[C@@H](CCCNC(=N)N)C(=O)N[C@H](C(=O)N[C@@H](CCCCN)C(=O)Nc1ccc2c(C)cc(=O)oc2c1)[C@@H](C)O; listed as Homo sapiens) [Ac-histone H3 (1-4)-MCA]”, the “methylation of peptidyl MCA by Set9” value was “methylation often occurred”.

With “Ac-QLATKAARK-MCA (Ac-QLATKAARK-{AMC}; SMILES CC(=O)N[C@@H](CCC(N)=O)C(=O)N[C@@H](CC(C)C)C(=O)N[C@@H](C)C(=O)N[C@H](C(=O)N[C@@H](CCCCN)C(=O)N[C@@H](C)C(=O)N[C@@H](C)C(=O)N[C@@H](CCCNC(=N)N)C(=O)N[C@@H](CCCCN)C(=O)Nc1ccc2c(C)cc(=O)oc2c1)[C@@H](C)O; listed as Homo sapiens) [Ac-histone H3 (19-27)-MCA]”, the “methylation of peptidyl MCA by Set9” value is “little methylation occurred”. For the substance “Ac-ARK-MCA (Ac-Ala-Arg-Lys-{AMC}; SMILES CC(=O)N[C@@H](C)C(=O)N[C@@H](CCCNC(=N)N)C(=O)N[C@@H](CCCCN)C(=O)Nc1ccc2c(C)cc(=O)oc2c1; listed as Homo sapiens) [Ac-histone H3 (7-9/25-27)-MCA, acetyl-ARK (human histone H3 7-9 or 25-27)-MCA substrate]”, the “methylation of peptidyl MCA by Set9” value is recorded as “little methylation occurred”. Consider “Ac-KAARK-MCA (Ac-KAARK-{AMC}; SMILES CC(=O)N[C@@H](CCCCN)C(=O)N[C@@H](C)C(=O)N[C@@H](C)C(=O)N[C@@H](CCCNC(=N)N)C(=O)N[C@@H](CCCCN)C(=O)Nc1ccc2c(C)cc(=O)oc2c1; listed as Homo sapiens) [Ac-histone H3 (23-27)-MCA]”, for which the “methylation of peptidyl MCA by Set9” value was “little methylation occurred”.

Still in this assay, the particulars now being: Example 13; AMC and peptidyl MCA fluorescence; FIGS. 25 and 26.
As to “Ac-ARTKQTARK-MCA [Ac-histone H3 (1-9)-MCA]”, the “methylation of peptidyl MCA by His-Set7/9” value is “does not methylate”. Take “Ac-KRSK-MCA (Ac-KRSK-{AMC}; SMILES CC(=O)N[C@@H](CCCCN)C(=O)N[C@@H](CCCNC(=N)N)C(=O)N[C@@H](CO)C(=O)N[C@@H](CCCCN)C(=O)Nc1ccc2c(C)cc(=O)oc2c1; listed as Homo sapiens) [Ac-ERα (299-302)-MCA]”: the “methylation of peptidyl MCA by His-Set7/9” value is listed as “methylates”.
